The values that follow come from US6699677 (CHEMOCENTRYX, dated 2004).

The target in experiment [1] is T1, CCR4 on transfected mouse myeloma NSO cells (UniProt P51679 1-360, limits assumed).
T1 construct: whole, on cells; also called CCR4-NSO; CCR4 NSO cells
T1 sequence (looked up): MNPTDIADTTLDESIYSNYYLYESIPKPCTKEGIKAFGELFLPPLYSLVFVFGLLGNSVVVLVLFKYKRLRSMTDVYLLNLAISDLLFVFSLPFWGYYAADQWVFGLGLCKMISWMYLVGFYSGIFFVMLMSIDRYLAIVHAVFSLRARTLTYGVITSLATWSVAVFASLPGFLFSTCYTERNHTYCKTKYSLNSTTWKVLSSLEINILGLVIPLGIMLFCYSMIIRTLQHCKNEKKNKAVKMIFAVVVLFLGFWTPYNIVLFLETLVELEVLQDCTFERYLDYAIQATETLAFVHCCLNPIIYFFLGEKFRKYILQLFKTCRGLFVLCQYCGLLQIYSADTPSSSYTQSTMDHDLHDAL
In words: preincubation of CCR4-NSO cells with 10 ug/ml soluble chemokine, then adhesion to immobilized MDC-FRAC or TARC-FRAC.

Experiment [2] deals with T2, human CCR10 (CCX CKR) with N-terminal FLAG epitope, stably expressed on HEK293 cells (human, UniProt Q9NPB9 1-350).
T2 construct: also called HEK293-CCR10 cells; CCR10-expressing cells
T2 sequence: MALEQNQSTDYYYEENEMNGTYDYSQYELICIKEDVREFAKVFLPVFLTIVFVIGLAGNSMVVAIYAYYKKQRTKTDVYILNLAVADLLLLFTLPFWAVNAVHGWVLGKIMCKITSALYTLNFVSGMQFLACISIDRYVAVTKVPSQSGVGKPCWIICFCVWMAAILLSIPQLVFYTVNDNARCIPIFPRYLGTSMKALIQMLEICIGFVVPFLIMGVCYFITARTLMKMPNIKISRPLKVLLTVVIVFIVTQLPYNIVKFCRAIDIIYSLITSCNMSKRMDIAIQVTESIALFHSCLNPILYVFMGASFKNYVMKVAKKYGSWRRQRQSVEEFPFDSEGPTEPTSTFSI
The experiment can be described thus: summary of Example 1; assay for this ligand not described.

In experiment [3] the target is T3, CCR1 on transfected mouse myeloma NSO cells (UniProt P32246 1-355, limits assumed).
T3 construct: whole, on cells; also called CCR1-NSO
T3 sequence (looked up): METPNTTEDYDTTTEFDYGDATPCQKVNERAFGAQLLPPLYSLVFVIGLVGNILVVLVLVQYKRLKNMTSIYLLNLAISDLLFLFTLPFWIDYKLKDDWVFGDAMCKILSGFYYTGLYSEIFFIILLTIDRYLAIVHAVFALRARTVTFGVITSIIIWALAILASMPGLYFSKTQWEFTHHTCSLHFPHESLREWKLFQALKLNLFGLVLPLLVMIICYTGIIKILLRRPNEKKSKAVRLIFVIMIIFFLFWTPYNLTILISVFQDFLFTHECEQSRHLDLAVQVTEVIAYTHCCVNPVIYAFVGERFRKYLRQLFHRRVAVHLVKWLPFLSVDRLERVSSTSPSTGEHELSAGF
The experiment can be described thus: adhesion of receptor-expressing NSO cells to immobilized stalkokine.

The target of experiment [4] is T1, CCR4 on transfected mouse myeloma NSO …. Described as above.
For experiment [5], the target named is T4, CCR4 on CEM cells (UniProt P51679 1-360, limits assumed).
T4 construct: whole, on cells; also called CEM cells expressing CCR4; CEM cells that express CCR4
T4 sequence (looked up): T1 sequence (looked up)
In words: displacement of radiolabeled MDC or TARC from CEM cells expressing CCR4 by stalkokine supernatant.

Experiment [6] addresses T2, human CCR10 (CCX CKR) with N-terminal …. In words: homologous competition, radiolabeled TECK with cold TECK on cells.
For experiment [7], the target named is T5, CCR7 on transfected mouse myeloma NSO cells (UniProt P32248 25-378, limits assumed).
T5 construct: whole, on cells; also called CCR7-NSO
T5 sequence (looked up): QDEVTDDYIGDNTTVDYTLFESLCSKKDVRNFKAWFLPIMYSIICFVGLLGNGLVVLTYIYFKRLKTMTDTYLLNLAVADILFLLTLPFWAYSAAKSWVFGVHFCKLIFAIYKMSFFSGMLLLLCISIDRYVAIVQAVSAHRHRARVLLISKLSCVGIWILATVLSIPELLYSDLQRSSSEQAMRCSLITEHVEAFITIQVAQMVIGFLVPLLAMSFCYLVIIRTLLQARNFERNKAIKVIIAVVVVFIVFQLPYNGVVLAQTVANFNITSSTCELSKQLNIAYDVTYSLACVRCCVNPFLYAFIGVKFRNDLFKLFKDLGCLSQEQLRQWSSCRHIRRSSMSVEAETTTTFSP
The experiment can be described thus: adhesion of receptor-expressing NSO cells to immobilized stalkokine.

The target of experiment [8] is T2, human CCR10 (CCX CKR) with N-terminal …. In words: adhesion of HEK293-CCR10 cells to stalkokine immobilized via anti-His antibody on chamber slides.
Experiment [9] has the same target. In words: homologous competition, radiolabeled ELC with increasing unlabeled ELC on cells.
Experiment [10] deals with T6, CCR8 on transfected mouse myeloma NSO cells (UniProt P51685 1-355, limits assumed).
T6 construct: whole, on cells; also called CCR8-NSO
The experiment can be described thus: adhesion of receptor-expressing NSO cells to immobilized stalkokine.

The target in experiment [11] is T4, CCR4 on CEM cells. The experiment can be described thus: displacement of radiolabeled MDC or TARC from CEM cells expressing CCR4 by soluble MDC.

T6 sequence (P51685 whole entry): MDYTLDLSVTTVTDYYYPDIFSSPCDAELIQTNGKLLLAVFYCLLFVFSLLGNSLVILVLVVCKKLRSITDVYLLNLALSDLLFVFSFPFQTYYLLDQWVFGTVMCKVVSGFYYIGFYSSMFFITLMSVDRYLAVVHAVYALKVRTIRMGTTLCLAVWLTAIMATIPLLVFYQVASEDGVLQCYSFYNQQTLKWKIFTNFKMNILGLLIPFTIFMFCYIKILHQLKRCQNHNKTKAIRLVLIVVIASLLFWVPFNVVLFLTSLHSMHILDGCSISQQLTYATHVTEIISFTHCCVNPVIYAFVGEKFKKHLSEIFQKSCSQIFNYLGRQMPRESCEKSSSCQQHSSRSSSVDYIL

B1: TARC, soluble chemokine (ligand, human, UniProt Q92583 24-94, looked up)
chain: ARGTNVGRECCLEYFKGAIPLRKLKTWYQTSEDCSRDAIVFVTVQGRAICSDPNNKRVKNAVKYLQSLERS
notes: Also used radiolabeled as tracer on CEM cells; also called soluble TARC; radiolabeled TARC
Take B1: the binding result in experiment [1] is “binds”.

B2: vMIPII (ligand)
chain: GDTLGASWHRPDKCCLGYQKRPLPQVLLSSWYPTSQLCSKPGVIFLTKRGRQVCADKSKDWVKKLMQQLPVTAR
Regarding B2, the binding result in experiment [2] is recorded as “binds”.

B3: MCP3-FRAC (MCP3 stalkokine) (ligand)
chain: not shown
notes: mature; also called MCP3 (stalkokine form); MCP3 tethered ligand; not shown: polylinker residues
For the molecule B3, the binding result in experiment [3] was “binds”.

B4: MDC-FRAC (stalkokine with a fractalkine stalk and an MDC ligand domain) (ligand, human, not shown: small tags and cut ends)
chain: GPYGANMEDSVCCRDYVRYRLPLRVVKHFYWTSDSCPRPGVVLLTFRDKEICADPRVPWVKMILNKLSQEFGGTFEKQIGEVKPRTTPAAGGMDESVVLEPEATGESSSLEPTPSSQEAQRALGTSPELPTGVTGSSGTRLPPTPKAQDGGPVGTELFRVPPVSTAATWQSSAPHQPGPSLWAEAKTSEAPSTQDPSTQASTASSPAPEENAPSEGQRVWGQGQSPRPENSLEREEMGPVPAHTDAFQDWGPGSMAHVSVVPVSSEGTPSREPVASGSWTPKAEEPIHATMDPQRLGVLITPVPDAQA
notes: mature; Used as cell supernatant, soluble (displacement, calcium flux) or immobilized through anti-His antibody (adhesion); also called MDC-SK; MDC-Stalkokine
Regarding B4, the binding result (in experiment [4]; with CCR4 on CEM cells [5]) was “binds” in each case.

B5: TARC-FRAC (stalkokine with a fractalkine stalk and a TARC ligand domain) (ligand, human, not shown: small tags and cut ends)
chain: ARGTNVGRECCLEYFKGAIPLRKLKTWYQTSEDCSRDAIVFVTVQGRAICSDPNNKRVKNAVKYLQSLERSEFGGTFEKQIGEVKPRTTPAAGGMDESVVLEPEATGESSSLEPTPSSQEAQRALGTSPELPTGVTGSSGTRLPPTPKAQDGGPVGTELFRVPPVSTAATWQSSAPHQPGPSLWAEAKTSEAPSTQDPSTQASTASSPAPEENAPSEGQRVWGQGQSPRPENSLEREEMGPVPAHTDAFQDWGPGSMAHVSVVPVSSEGTPSREPVASGSWTPKAEEPIHATMDPQRLGVLITPVPDAQA
notes: mature; Used as cell supernatant, soluble (displacement, calcium flux) or immobilized through anti-His antibody (adhesion); also called TARC-SK; TARC-Stalkokine
In the case of B5, the binding result (in experiment [4]; with CCR4 on CEM cells [5]) was “binds” in each case.

B6: TECK, soluble recombinant native form chemokine (ligand, UniProt O15444 24-150, looked up)
chain: QGVFEDCCLAYHYPIGWAVLRRAWTYRIQEVSGSCNLPAAIFYLPKRHRKVCGNPKSREVQRAMKLLDARNKVFAKLHHNTQTFQAGPHAVKKLSSGNSKLSSSKFSNPISSSKRNVSLLISANSGL
notes: mature; Tracer was 125I-labeled TECK from Amersham; also called soluble TECK; cold TECK
Consider B6, for which the binding result in [6] is “binds”.

B7: ELC-stalkokine (ELC ligand domain, human fractalkine mucin stalk, myc epitope and poly-histidine) (ligand, not shown: small tags and cut ends)
chain: GTNDAEDCCLSVTQKPIPGYIVRNFHYLLIKDGCRVPAVVFTTLRGRQLCAPPDQPWVERIIQRLQRTSAKMKRRSSEFGGTFEKQIGEVKPRTTPAAGGMDESVVLEPEATGESSSLEPTPSSQEAQRALGTSPELPTGVTGSSGTRLPPTPKAQDGGPVGTELFRVPPVSTAATWQSSAPHQPGPSLWAEAKTSEAPSTQDPSTQASTASSPAPEENAPSEGQRVWGQGQSPRPENSLEREEMGPVPAHTDAFQDWGPGSMAHVSVVPVSSEGTPSREPVASGSWTPKAEEPIHATMDPQRLGVLITPVPDAQA
notes: mature; also called ELC-SK; ELC-FRAC
Regarding B7, the binding result in experiment [7] and in experiment [8] was “binds” throughout.

B8: ELC, soluble recombinant native form chemokine (ligand, UniProt Q99731 22-98, looked up)
chain: GTNDAEDCCLSVTQKPIPGYIVRNFHYLLIKDGCRVPAVVFTTLRGRQLCAPPDQPWVERIIQRLQRTSAKMKRRSS
notes: mature; also called soluble ELC; soluble native ELC
As for B8, the binding result in experiment [9] was “binds”.

B9: I309-FRAC (I309 stalkokine) (ligand, human, not shown: small tags and cut ends)
chain: KSMQVPFSRCCFSFAEQEIPLRAILCYRNTSSICSNEGLIFKLKRGKEACALDTVGWVQRHRKMLRHCPSKRKEFGGTFEKQIGEVKPRTTPAAGGMDESVVLEPEATGESSSLEPTPSSQEAQRALGTSPELPTGVTGSSGTRLPPTPKAQDGGPVGTELFRVPPVSTAATWQSSAPHQPGPSLWAEAKTSEAPSTQDPSTQASTASSPAPEENAPSEGQRVWGQGQSPRPENSLEREEMGPVPAHTDAFQDWGPGSMAHVSVVPVSSEGTPSREPVASGSWTPKAEEPIHATMDPQRLGVLITPVPDAQA
notes: mature; also called I309 (stalkokine form); 1309-FRAC
For the molecule B9, the binding result in experiment [10] was “binds”.

B10: SLC-FRAC (SLC stalkokine) (ligand, human, not shown: small tags and cut ends)
chain: SDGGAQDCCLKYSQRKIPAKVVRSYRKQEPSLGCSIPAILFLPRKRSQAELCADPKELWVQQLMQHLDKTPSPQKPAQGCRKDRGASKTGKKGKGSKGCKRTERSQTPKGPEFGGTFEKQIGEVKPRTTPAAGGMDESVVLEPEATGESSSLEPTPSSQEAQRALGTSPELPTGVTGSSGTRLPPTPKAQDGGPVGTELFRVPPVSTAATWQSSAPHQPGPSLWAEAKTSEAPSTQDPSTQASTASSPAPEENAPSEGQRVWGQGQSPRPENSLEREEMGPVPAHTDAFQDWGPGSMAHVSVVPVSSEGTPSREPVASGSWTPKAEEPIHATMDPQRLGVLITPVPDAQA
notes: mature; also called SLC (stalkokine form); 6Ckine
Regarding B10, the binding result in [7] is on record as “no binding”.

B11: MDC, soluble chemokine (ligand, human, UniProt O00626 25-93, looked up)
chain: GPYGANMEDSVCCRDYVRYRLPLRVVKHFYWTSDSCPRPGVVLLTFRDKEICADPRVPWVKMILNKLSQ
notes: Also used radiolabeled as tracer on CEM cells; also called MDC-CK; soluble MDC
With B11, the binding result (in the experiment with CCR4 on CEM cells [11]; in [1]) was “binds” throughout.
